Measurements published in patent publication US20060240015A1 (Kyowa Kirin, published 2006).
Values belong to the binder of their own block, whether it stands above or below them.

Experiments:
[1] = target: T1, human insulin-like growth factor-I (human, UniProt P05019 49-118); test: SPR (Biacore 2000), hIGF-I amine-coupled on CM-5, antibody as analyte, 25 C
T1 construct: mature; In the ELISAs it was coated as a conjugate with methylated BSA; in Biacore it was amine-coupled to a CM-5 chip; also called hIGF-I; IGF-I
T1 sequence (P05019 49-118): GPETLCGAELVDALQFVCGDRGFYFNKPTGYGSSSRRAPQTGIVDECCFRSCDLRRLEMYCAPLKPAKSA
Experimental: (§1) For diluting samples and as reaction buffers in measurement, HBS-EP (10 mM HEPES, 150 mM NaCl, 3 mM EDTA, 0.005% Tween 20 pH 7.4) (manufactured by Biacore) was used.
(§2) Using an amine coupling kit (manufactured by Biacore), recombinant hIGF-I (manufactured by Fujisawa Pharmaceutical Co., Ltd.) and hIGF-II (manufactured by R & D) were immobilized at 18.5 pg/mm² or 26.7 pg/mm², respectively, on sensor tip CM-5 (manufactured by Biacore). After various antibodies which were diluted 5 steps in 2-fold serial dilutions as analytes added at a flow of 5 μl/minute for 4 minutes to observe a binding reaction, the dissociation reaction was subsequently observed over 5 minutes. After the dissociation reaction, 5 μl of 30 mM hydrochloric acid was added once, to regenerate the sensor chip surface. The reaction was done at 25° C. Based on the reaction curves at various concentrations, the binding constant Kass and dissociation constant Kdiss were calculated, to calculate the binding constants KA (M⁻¹) of these various antibodies.

[2] = target: T2, human insulin-like growth factor-II (human, UniProt P01344 25-91); test: SPR (Biacore 2000), hIGF-II amine-coupled on CM-5, antibody as analyte, 25 C
T2 construct: also called hIGF-II; IGF-II
T2 sequence (P01344 25-91 limits assumed): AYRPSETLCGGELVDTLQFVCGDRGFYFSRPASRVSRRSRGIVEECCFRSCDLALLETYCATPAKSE
Experimental: as §1, §2

[3] = target: T1, human insulin-like growth factor-I; test: binding ELISA on coated mBSA-hIGF-I
Experimental: A conjugate of hIGF-I (manufactured by Fujisawa Co., Ltd.) with methylated BSA (manufactured by SIGMA) was prepared and used as an antigen to be immobilized on an ELISA plate. That is, methylated BSA dissolved in distilled water was mixed with hIGF to a ratio of methylated BSA:hIGF-I=1:8 (weight ratio) at 4° C. The resulting mixture was agitated with a vortex mixer for 10 seconds, to obtain a conjugate of hIGF-I with methylated BSA (hereinafter referred to as mBSA-hIGF-I).
The above mBSA-hIGF-I was dispensed at 50 μl/well on a 96-well ELISA plate (manufactured by Greiner) to give a hIGF-I concentration of 20 ng/ml and then left overnight at 4° C. for immobilization. After washing with PBS, PBS containing 1% BSA (hereinafter referred to as BSA-PBS) was dispensed in 100 μl/well to react at room temperature for 1 hour to carry out blocking of the remaining active groups. Discarding BSA-PBS, the culture supernatant of each of the various transformants or each of various purified hIGF CDR-grafted antibodies was dispensed at 50 μl/well to react at room temperature for 2 hours. After the reaction, each well was washed with PBS containing 0.05% Tween 20 (hereinafter referred to as Tween-PBS). Then, HRP-labeled anti-human IgG antibody (manufactured by American Qualex) in 2000-fold dilution was dispensed at 50 μl/well as a secondary antibody to react at room temperature for 1 hour.

[4] = target: T2, human insulin-like growth factor-II; test: SPR (Biacore 2000)
[5] = target: T1, human insulin-like growth factor-I; test: SPR (Biacore 2000)

B2: anti-hIGF CDR-grafted antibody CamHV0/LV0 (antibody, human IgG1, V domains shown)
VH: QVQLVESGGGVVQPGRSLRLSCAASGFTFSNYYMTWVRQAPGKGLEWVAYISSGGGSTYYRDSVKGRFTISRDNSKNTLYLQMNSLRAEDTAVYYCAREDYGYWFAYWGQGTLVTVSS
VL: DIVMTQSPDSLAVSLGERATINCRASSSVSYMHWYQQKPGQPPKLLIYGTSKLASGVPDRFSGSGSGTDFTLTISSLQAEDVAVYYCLQRSSYPPTFGQGTKVEIK
notes: Human IgG1, kappa (pKANTEX93); also called CmaHV0/LV0
Ka [1]: 1.7e+08 M⁻¹
Ka [2]: 3.9e+08 M⁻¹
binding activity relative to KM3002 (fold) [3]: ~0.02 fold
KA relative to KM3002 (fold) [4]: ~0.167 fold
KA relative to KM3002 (fold) [5]: ~0.059 fold

B3: anti-hIGF CDR-grafted antibody CamHV0/NYPLL3A11 (antibody, human IgG1, V domains shown)
VH: QVQLVESGGGVVQPGRSLRLSCAASGFTFSNYYMTWVRQAPGKGLEWVAYISSGGGSTYYRDSVKGRFTISRDNSKNTLYLQMNSLRAEDTAVYYCAREDYGYWFAYWGQGTLVTVSS
VL: DIVMTQSPDSLAVSLGERATITCRASSSVSYMHWFQQKPGQSPKPWIYGTSKLASGVPDRFSGSGSGTSYSLTISSLQAEDAATYYCLQRSSYPPTFGQGTKVEIK
Ka [1]: 1.32e+09 M⁻¹
Ka [2]: 2.1e+09 M⁻¹
binding activity relative to CamHV0/LV0 (fold) [3]: ~25 fold
binding activity relative to KM3002 (fold) [3]: ~0.5 fold
KA relative to CamHV0/LV0 (fold) [4]: ~5 fold
KA relative to CamHV0/LV0 (fold) [5]: ~8 fold

B4: anti-hIGF CDR-grafted antibody QAR/LV0 (antibody, human IgG1, V domains shown)
VH: EVQLVESGGGVVQPGRSLRLSCAASGFTFSNYYMTWVRQAPGKGLEWVAYISSGGGSTYYRDSVKGRFTISRDNSKNTLYLQMNSLRAEDTAVYYCTTEDYGYWFAYWGQGTLVTVSS
VL: DIVMTQSPDSLAVSLGERATINCRASSSVSYMHWYQQKPGQPPKLLIYGTSKLASGVPDRFSGSGSGTDFTLTISSLQAEDVAVYYCLQRSSYPPTFGQGTKVEIK
notes: Human IgG1, kappa (pKANTEX93); also called QAV/LV0
Ka [1]: 1.7e+08 M⁻¹
Ka [2]: 4.5e+08 M⁻¹

B5: anti-hIGF CDR-grafted antibody QGAR/LV0 (antibody, human IgG1, V domains shown)
VH: EVQLVESGGGVVQPGRSLRLSCAASGFTFSNYYMTWVRQAPTKGLEWVAYISSGGGSTYYRDSVKGRFTISRDNSKNTLYLQMNSLRAEDTAVYYCTTEDYGYWFAYWGQGTLVTVSS
VL: DIVMTQSPDSLAVSLGERATINCRASSSVSYMHWYQQKPGQPPKLLIYGTSKLASGVPDRFSGSGSGTDFTLTISSLQAEDVAVYYCLQRSSYPPTFGQGTKVEIK
notes: Human IgG1, kappa (pKANTEX93)
Ka [1]: 7.8e+08 M⁻¹
Ka [2]: 1.75e+09 M⁻¹
binding activity relative to CamHV0/LV0 (fold) [3]: ~25 fold
binding activity relative to KM3002 (fold) [3]: ~0.5 fold
KA relative to CamHV0/LV0 (fold) [4]: ~5 fold
KA relative to CamHV0/LV0 (fold) [5]: ~5 fold

B8: anti-hIGF CDR-grafted antibody QGAR/NYPLL3A11 (antibody, V domains shown)
VH: EVQLVESGGGVVQPGRSLRLSCAASGFTFSNYYMTWVRQAPTKGLEWVAYISSGGGSTYYRDSVKGRFTISRDNSKNTLYLQMNSLRAEDTAVYYCTTEDYGYWFAYWGQGTLVTVSS
VL: DIVMTQSPDSLAVSLGERATITCRASSSVSYMHWFQQKPGQSPKPWIYGTSKLASGVPDRFSGSGSGTSYSLTISSLQAEDAATYYCLQRSSYPPTFGQGTKVEIK
notes: Human IgG1, kappa (pKANTEX93)
Ka [1]: 2.32e+09 M⁻¹
Ka [2]: 3.96e+09 M⁻¹
KA relative to CamHV0/LV0 (fold) [4]: ~10 fold
KA relative to CamHV0/LV0 (fold) [5]: ~14 fold

Further lines, results first:

Ka [1]: 2.94e+09 M⁻¹
Ka [2]: 2.24e+09 M⁻¹
B1: anti-hIGF human chimeric antibody KM3002 (antibody, human IgG1, V domains shown)
VH: EVHLVESGGGLVQPGRSLKLSCAASGFTFSNYYMTWVRQAPTKGLEWVAYISSGGGSTYYRDSVKGRFTISRDNAKSTLYLQMDSLRSEDTATYYCTTEDYGYWFAYWGQGTLVTVSS
VL: EIVLTQSPTTMAASPGEKVTITCRASSSVSYMHWFQQKSGTSPKPWIYGTSKLASGVPDRFSGSGSGTSYSLTISSMEAEDAATYYCLQRSSYPPTFGAGTKLELK
notes: V regions of KM1468 on human IgG1, kappa constant regions (vector pKANTEX93); also called anti-hIGF chimeric antibody KM3002

Ka [1]: 2.31e+09 M⁻¹
Ka [2]: 4.02e+09 M⁻¹
B6: anti-hIGF CDR-grafted antibody QGAR/PLDFT (antibody, human IgG1, V domains shown)
VH: EVQLVESGGGVVQPGRSLRLSCAASGFTFSNYYMTWVRQAPTKGLEWVAYISSGGGSTYYRDSVKGRFTISRDNSKNTLYLQMNSLRAEDTAVYYCTTEDYGYWFAYWGQGTLVTVSS
VL: DIVMTQSPDSLAVSLGERATINCRASSSVSYMHWYQQKPGQSPKPLIYGTSKLASGVPDRFSGSGSGTSYSLTISSLQAEDVAVYYCLQRSSYPPTFGQGTKVEIK
notes: Human IgG1, kappa (pKANTEX93)

Ka [1]: 2.78e+09 M⁻¹
Ka [2]: 3.52e+09 M⁻¹
B7: anti-hIGF CDR-grafted antibody QGAR/PLLDFT (antibody, human IgG1, V domains shown)
VH: EVQLVESGGGVVQPGRSLRLSCAASGFTFSNYYMTWVRQAPTKGLEWVAYISSGGGSTYYRDSVKGRFTISRDNSKNTLYLQMNSLRAEDTAVYYCTTEDYGYWFAYWGQGTLVTVSS
VL: DIVMTQSPDSLAVSLGERATINCRASSSVSYMHWYQQKPGQSPKPWIYGTSKLASGVPDRFSGSGSGTSYSLTISSLQAEDVAVYYCLQRSSYPPTFGQGTKVEIK
notes: Human IgG1, kappa (pKANTEX93)
